In patent US20090111753A1, “Nogo-A Polypeptide Fragments, Variant Nogo Receptor-1 Polypeptides, and Uses Thereof” (Yale University, priority 2004, published 2009):
Residue numbers refer to the chain shown, from its start. No end group written: not given here. *: point of attachment. Biotin = O=C1N[C@H]2[C@H](CS[C@H]2CCCCC(=O)*)N1

Legend:
E13 chick DRG neurons = assay: cDRG neurite outgrowth assay; format: cell-based
Description: FIG. 2D. Differential effects of Amino-Nogo fragments on neurite outgrowth. Dissociated neurons from E13 chick DRGs were plated on 96 well dishes coated with lpmol protein per well and stained for neurofilament localization.
FIG. 2E. Neurite length per neuron were measured and plotted as percentage of PBS control with increasing concentration of dried protein for experiment described in […].
FIG. 6C. B24/32 peptide inhibits neurite outgrowth. Dissociated neurons from E13 chick DRG were plated onto 96 well dishes coated with 500 pmol of dried peptides as indicated and stained for neurofilament localization.
FIG. 6D. Neurite length per neuron was measured and plotted as percentage of PBS control for experiments as in (C).
It has been recognized that the Amino-Nogo-A protein inhibits non-neuronal cell spreading and axonal outgrowth when the protein is substrate bound (Chen, M. S., et al., Nature 403:434-439 (2000); Fournier, A. E., et al., Nature 409:341-346 (2001)). […] The later domain has been termed Δ20. To determine whether the NgR-interacting aa of Amino-Nogo-A described in Example 1 regulate cell spreading and axonal outgrowth, various fragments were expressed as GST fusion proteins and purified from E. coli. To generate GST fusion proteins, amino Nogo fragments were cloned in pGEX2T (Amersham Pharmacia). Native and soluble GST fusion proteins were expressed and purified as described (GrandPre, T., et al., Nature 403:439-444 (2000)). COS-7 binding assays were done as described (Fournier, A. E., et al., Nature 409:341-346 (2001)). Bound AP to COS-7 cells was measured using NIH image software. Fibroblast spreading and cDRG outgrowth assay were done as described (Fournier, A. E., et al., Nature 409:341-346 (2001)) with some modifications. Briefly, 50 μl of purified GST fusion protein or peptides diluted in PBS was pipetted into polylysine precoated 96 well plates (Becton Dickson Biocoat plates) and dried overnight at room temperature. For fibroblast spreading assay, subconfluent COS-7 cells were then plated for 1 hour in serum containing medium before fixation and staining with rho damine-phalloidin.
The same GST-Amino-Nogo proteins were tested for their ability to reduce neurite outgrowth from chick E13 DRG neurons. For cDRG outgrowth assay, dissociated E13 cDRG neurons were plated for 6 hours before fixation. […] Cell area, number of attached cells and neurite length were measured using the Imageexpress machine and software (Axon Instrument).
We reasoned that fusing the 24 aa segment of Amino-Nogo-A to NEP32 antagonist peptide might create a high affinity antagonist with a potency similar to the binding of AP-B4C-66 to NgR. […] Cell area, number of attached cells and neurite length were measured using the linageexpress machine and software (Axon Instrument).

[1] = target: T1, NgR expressed on COS-7 cells (species not stated); assay: AP fusion on NgR-expressing COS-7 cells
T1 chain: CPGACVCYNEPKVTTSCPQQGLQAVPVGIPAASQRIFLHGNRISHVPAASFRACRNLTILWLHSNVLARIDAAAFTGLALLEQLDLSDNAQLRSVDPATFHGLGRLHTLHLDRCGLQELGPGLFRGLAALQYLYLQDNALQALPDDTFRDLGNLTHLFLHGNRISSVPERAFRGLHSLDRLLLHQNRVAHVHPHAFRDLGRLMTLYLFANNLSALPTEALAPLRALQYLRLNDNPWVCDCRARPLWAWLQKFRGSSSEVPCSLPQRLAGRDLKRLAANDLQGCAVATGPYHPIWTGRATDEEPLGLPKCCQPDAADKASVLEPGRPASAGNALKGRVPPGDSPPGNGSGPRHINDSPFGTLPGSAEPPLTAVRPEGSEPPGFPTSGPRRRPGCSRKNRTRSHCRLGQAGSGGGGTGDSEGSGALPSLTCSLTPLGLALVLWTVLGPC
From the text: Several alkaline phosphatase (AP) fusion proteins containing various Nogo-A segments derived from regions between the amino terminus and the first hydrophobic segment were examined to identify the mechanism of Amino-Nogo-A action. To generate additional AP fusion proteins, human amino Nogo fragments were amplified and ligated to the pcAP6 vector digested with restriction enzymes EcoRI and XhoI as described (Fournier, A. E., et al., Nature 409:341-346 (2001)). Plasmids were then transfected into HEK293T cells and conditioned media were collected after 7 days. None of these fragments bind with high affinity to non-transfected COS-7 cells. […] This binding is saturable with a Kd indistinguishable from that for AP-Nogo-66 association with NgR (Table I). To better define the region responsible for Amino-Nogo interaction with NgR, a range of truncation mutants of Amino-Nogo were examined as AP fusion proteins.
Binding Kds for AP fused Amino-Nogo fragments were measured by applying conditioned media containing AP fusion protein to NgR expressing COS-7 cells. Bound AP was stained and measured.

AP-Nogo-66 = target: T2, AP-Nogo-66 (UniProt Q9NQC3 1055-1120); assay: AP-ligand binding, COS-7
T2 construct: domain: Nogo-66; construct described elsewhere (Fournier 2001); also called AP-Ng66; Ng66; not shown: alkaline phosphatase (AP); construct described elsewhere
T2 sequence (looked up): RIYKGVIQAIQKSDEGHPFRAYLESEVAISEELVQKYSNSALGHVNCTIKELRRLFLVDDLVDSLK

[2] = target: T3, AP-fused Amino-Nogo fragment B4C (a.a. 950-1018) (human, UniProt Q9NQC3 950-1018); assay: AP-ligand binding, COS-7
T3 construct: also called AmNg B4C; AP-B4C; not shown: alkaline phosphatase (AP), vector pcAP6
T3 sequence: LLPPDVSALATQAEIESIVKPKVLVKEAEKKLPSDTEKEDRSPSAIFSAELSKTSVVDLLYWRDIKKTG

[3] = target: T4, AP fusion protein with the B4C fragment of Amino-Nogo-A fused directly to Nogo-66 (human, UniProt Q9NQC3 1055-1120); assay: AP-ligand binding, COS-7
T4 construct: domain: Nogo-66; also called AP-B4C66; AP-B4C-66; not shown: alkaline phosphatase (AP), vector pcAP6
T4 sequence: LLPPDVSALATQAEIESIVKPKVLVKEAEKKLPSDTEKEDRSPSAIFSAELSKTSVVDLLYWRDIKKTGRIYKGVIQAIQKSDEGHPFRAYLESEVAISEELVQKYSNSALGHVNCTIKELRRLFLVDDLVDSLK

NgR ligands = assay: Binding of alanine substituted NgR mutants to NgR ligands, summary categories; conditions: AP-Nogo66, AP-B4C, AP-B4C66, AP-Lingo-1, AP-OMgp and AP-MAG; compared to wild type NgR
Procedure, shortened: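 AP-fused ligands (Nogo66, B4C, B4C66, Lingo-1, OMgp, MAG) were assayed against 74 Ala-substitution mutants of human NgR1 targeting surface charged patches, glycosylation sites and predicted binding regions, plus the D259N variant. Outcomes were grouped into categories: binding lost for all ligands, retained for all, or ligand-selective.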

For “Biotin-IFSAELSKTSVVDLLYWRDIKKTG [carboxyl 24 aa segment of Amino-Nogo-A]”, the “effect on Nogo-66 action on neurite outgrowth” value (E13 chick DRG neurons; biotinylated peptide, FIGS. 6C and 6D) was “does not block or enhance Nogo-66 action on neurite outgrowth”.

For “biotin-IFSAELSKTSVVDLLYWRDIKKTGGRIYKGVIQAIQKSDEGHP FRAYLESEVAISEE [24-32 fusion peptide]”, the “axon outgrowth from DRG neurons” value (E13 chick DRG neurons; 500 pmol of dried biotinylated peptide per well) was “potently inhibited axon outgrowth”.

B1: AP-fused Amino-Nogo fragment a.a. 995-1014 (ligand)
chain: IFSAELSKTSVVDLLYWRDI
modifications: also: alkaline phosphatase (AP) fusion
notes: not shown: alkaline phosphatase (AP), vector pcAP6
In the case of B1, the Kd [1] is reported as 3.19 nM.

B2: AP-fused Amino-Nogo-A-19 (a.a. 995-1013) (ligand)
chain: IFSAELSKTSVVDLLYWRD
modifications: also: alkaline phosphatase (AP) fusion
notes: also called Ng19; not shown: alkaline phosphatase (AP), vector pcAP6
Work on B2 yielded a Kd [1] of 2.48 nM.

B3: AP-fused Amino-Nogo fragment a.a. 995-1015 (ligand)
chain: IFSAELSKTSVVDLLYWRDIK
modifications: also: alkaline phosphatase (AP) fusion
notes: as for B1
For B3, the Kd [1] was 4.55 nM.

B4: human NgR1 alanine mutant 87, 89, 133, 136 (receptor)
chain: T1 chain with W61A, H63A, H107A, H110A
B4: no binding (AP-Nogo-66); no binding [2]; no binding [3]. For the same molecule, the “ligand binding category of NgR mutant (Table II)” value (from here on “ligand binding category”) (NgR ligands) was “No binding”.

B5: human NgR1 alanine mutant 111, 113, 114, 138 (receptor)
chain: T1 chain with D85A, S87A, D88A, D112A
B5: no binding (AP-Nogo-66); no binding [2]; no binding [3]. The “ligand binding category” value (NgR ligands) was “No binding”.

B6: human NgR1 alanine mutant 182, 186, 158, 160 (receptor)
chain: T1 chain with Y132A, Y134A, H156A, H160A
B6: no binding (AP-Nogo-66); no binding [2]; no binding [3]. For the same molecule, the “ligand binding category” value (NgR ligands) was “No binding”.

B7: AP-Amino-Nogo-A-24 (a.a. 995-1018) (ligand)
chain: IFSAELSKTSVVDLLYWRDIKKTG
modifications: also: alkaline phosphatase (AP) fusion
notes: also called Amino-Nogo-24; not shown: alkaline phosphatase (AP), vector pcAP6
B7 showed a Kd [1] of 2.43 nM.

B8: AP-fused Amino-Nogo fragment a.a. 971-1018 (ligand)
chain: KVLVKEAEKKLPSDTEKEDRSPSAIFSAELSKTSVVDLLYWRDIKKTG
modifications: also: alkaline phosphatase (AP) fusion
notes: as for B1
B8 was tested, and the Kd [1] was 2.69 nM.

B9: AP-fused Amino-Nogo fragment a.a. 996-1018 (ligand)
chain: FSAELSKTSVVDLLYWRDIKKTG
modifications: also: alkaline phosphatase (AP) fusion
notes: as for B1
B9 gave a Kd [1] of 26.6 nM.
